Laboratory results taken from PMC7327923.

Tests used:
[1] = target: Dps protein from Thermoleptolyngbya sp. O-77 (TlDps1) (Thermoleptolyngbya sp. O-77); experiment: SDS/PAGE; 5-20% gel; sample buffer with 2% SDS and 14.4 mM 2-mercaptoethanol; incubated 10 min at 298, 323 or 348 K before loading
[2] = target: Dps protein from Thermoleptolyngbya sp. O-77 (TlDps1) (Thermoleptolyngbya sp. O-77); experiment: native gel or EMSA; native PAGE, 5-20% gel; TlDps1 in 10 mM Tris/HCl pH 8.0, also after DNase I treatment
[3] = target: Dps protein from Thermoleptolyngbya sp. O-77 (TlDps1) (Thermoleptolyngbya sp. O-77); experiment: SEC-RALS; TlDps1 as isolated, 206 µg/mL; Superdex 200 Increase, 303 K, 10 mM Tris/HCl pH 8.0, 0.5 mL/min
[4] = target: Dps protein from Thermoleptolyngbya sp. O-77 (TlDps1) (Thermoleptolyngbya sp. O-77); experiment: crystal structure; hanging drop, 293 K, TlDps1 4.0 mg/mL in 10 mM Tris/HCl pH 8.0 with 0.15 M cesium chloride and 18% PEG 3350; 2.9 Å; six subunits in the asymmetric unit

- stoichiometry N [1]: 12
- stoichiometry N [2]: 12
- stoichiometry N [3]: 12
- stoichiometry N [4]: 12
Substance: Dps protein from Thermoleptolyngbya sp. O-77 (TlDps1) (natural protein)
